This is an account of results in the supplement of paper PMC6379048.

Common to all, as to test: EC50 of free RNA motif oligo competing protein binding to immobilised probe
One series addresses T1, CELF2 (UniProt O95319).
T1 sequence: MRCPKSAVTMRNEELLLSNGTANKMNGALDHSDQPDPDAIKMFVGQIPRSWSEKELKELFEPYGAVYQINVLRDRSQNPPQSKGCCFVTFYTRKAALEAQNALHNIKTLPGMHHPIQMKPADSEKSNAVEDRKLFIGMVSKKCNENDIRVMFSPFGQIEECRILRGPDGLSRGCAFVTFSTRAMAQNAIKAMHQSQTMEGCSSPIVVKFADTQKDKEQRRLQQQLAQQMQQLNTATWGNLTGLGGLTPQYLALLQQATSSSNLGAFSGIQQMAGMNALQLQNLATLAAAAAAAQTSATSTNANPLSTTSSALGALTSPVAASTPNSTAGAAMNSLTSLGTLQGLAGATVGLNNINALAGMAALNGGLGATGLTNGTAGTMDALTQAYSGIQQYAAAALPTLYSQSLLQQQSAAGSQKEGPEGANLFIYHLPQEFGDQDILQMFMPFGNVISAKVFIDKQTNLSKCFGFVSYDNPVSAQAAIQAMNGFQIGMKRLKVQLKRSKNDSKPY
The method, then: (§1)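 Competition-binding assay: HEK293-FT cell lysate (2.5 mg protein) pre-incubated 1 h at 4°C with free motif-containing RNA oligos (0 to 30 µM, 12 doses), then pulled down with the same 5'-amino-C6 RNA oligos immobilised on NHS-Sepharose beads (30 min, 4°C). Bound proteins were quantified by label-free LC-MS/MS and normalised to the water control. EC50 came from a four-parameter log-logistic fit; Kd = EC50 x depletion factor. Random/reversed control probes are dropped.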

The target in a further series is DHX9 (UniProt Q08211). The method, then: as §1
Sequence of DHX9 (Q08211 whole entry): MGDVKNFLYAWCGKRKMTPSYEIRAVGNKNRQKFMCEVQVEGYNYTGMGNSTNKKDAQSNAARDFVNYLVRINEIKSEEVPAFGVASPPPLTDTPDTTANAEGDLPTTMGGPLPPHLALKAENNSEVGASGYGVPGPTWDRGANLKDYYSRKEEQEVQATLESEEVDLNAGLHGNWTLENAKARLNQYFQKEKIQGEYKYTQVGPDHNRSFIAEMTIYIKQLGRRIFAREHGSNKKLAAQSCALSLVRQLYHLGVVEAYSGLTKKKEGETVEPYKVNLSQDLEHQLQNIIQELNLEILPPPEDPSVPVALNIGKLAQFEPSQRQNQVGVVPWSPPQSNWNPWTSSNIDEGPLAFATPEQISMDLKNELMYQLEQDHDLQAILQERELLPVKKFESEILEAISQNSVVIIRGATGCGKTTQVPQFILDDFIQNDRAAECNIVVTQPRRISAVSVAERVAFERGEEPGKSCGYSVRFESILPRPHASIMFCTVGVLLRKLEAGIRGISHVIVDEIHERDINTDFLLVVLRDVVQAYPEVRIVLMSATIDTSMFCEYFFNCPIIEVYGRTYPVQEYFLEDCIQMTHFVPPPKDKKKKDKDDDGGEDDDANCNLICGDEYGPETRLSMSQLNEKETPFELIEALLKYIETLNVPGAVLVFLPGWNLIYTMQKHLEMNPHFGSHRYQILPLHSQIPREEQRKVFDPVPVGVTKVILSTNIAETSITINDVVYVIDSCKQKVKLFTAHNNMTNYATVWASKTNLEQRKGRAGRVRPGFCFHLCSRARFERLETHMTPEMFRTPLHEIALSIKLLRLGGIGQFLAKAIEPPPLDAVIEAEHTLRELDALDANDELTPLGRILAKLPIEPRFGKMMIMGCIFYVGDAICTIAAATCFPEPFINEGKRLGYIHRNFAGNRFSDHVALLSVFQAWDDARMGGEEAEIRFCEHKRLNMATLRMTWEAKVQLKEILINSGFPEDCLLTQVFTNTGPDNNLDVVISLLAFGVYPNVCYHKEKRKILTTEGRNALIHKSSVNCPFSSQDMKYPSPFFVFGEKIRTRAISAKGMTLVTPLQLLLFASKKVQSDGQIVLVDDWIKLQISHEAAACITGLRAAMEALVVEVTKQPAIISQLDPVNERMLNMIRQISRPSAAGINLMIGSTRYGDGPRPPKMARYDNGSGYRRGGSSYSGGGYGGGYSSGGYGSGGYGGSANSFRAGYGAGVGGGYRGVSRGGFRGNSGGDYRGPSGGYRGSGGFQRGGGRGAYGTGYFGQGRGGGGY
In a further series the target is T2, NKRF (UniProt O15226).
T2 sequence: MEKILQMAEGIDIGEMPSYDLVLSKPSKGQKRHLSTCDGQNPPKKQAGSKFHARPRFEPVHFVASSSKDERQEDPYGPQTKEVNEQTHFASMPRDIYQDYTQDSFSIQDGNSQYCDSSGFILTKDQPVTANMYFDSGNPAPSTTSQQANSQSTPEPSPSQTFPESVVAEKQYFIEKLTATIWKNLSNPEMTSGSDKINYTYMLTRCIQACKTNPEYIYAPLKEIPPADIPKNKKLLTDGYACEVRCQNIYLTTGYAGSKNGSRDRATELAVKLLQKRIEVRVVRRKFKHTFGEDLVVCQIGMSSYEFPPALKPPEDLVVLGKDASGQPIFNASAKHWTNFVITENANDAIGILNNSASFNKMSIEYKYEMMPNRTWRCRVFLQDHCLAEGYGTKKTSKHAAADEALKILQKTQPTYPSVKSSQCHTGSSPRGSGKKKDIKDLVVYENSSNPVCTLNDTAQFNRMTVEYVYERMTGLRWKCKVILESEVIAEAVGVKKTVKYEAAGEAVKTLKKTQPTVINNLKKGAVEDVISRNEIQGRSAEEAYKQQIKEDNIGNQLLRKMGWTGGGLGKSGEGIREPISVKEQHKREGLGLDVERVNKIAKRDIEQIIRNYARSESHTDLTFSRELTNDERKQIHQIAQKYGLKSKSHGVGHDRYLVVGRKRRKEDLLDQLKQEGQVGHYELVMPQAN
As to the method: as §1

The next series has as its target T3, XRN2 (UniProt Q9H0D6).
T3 sequence: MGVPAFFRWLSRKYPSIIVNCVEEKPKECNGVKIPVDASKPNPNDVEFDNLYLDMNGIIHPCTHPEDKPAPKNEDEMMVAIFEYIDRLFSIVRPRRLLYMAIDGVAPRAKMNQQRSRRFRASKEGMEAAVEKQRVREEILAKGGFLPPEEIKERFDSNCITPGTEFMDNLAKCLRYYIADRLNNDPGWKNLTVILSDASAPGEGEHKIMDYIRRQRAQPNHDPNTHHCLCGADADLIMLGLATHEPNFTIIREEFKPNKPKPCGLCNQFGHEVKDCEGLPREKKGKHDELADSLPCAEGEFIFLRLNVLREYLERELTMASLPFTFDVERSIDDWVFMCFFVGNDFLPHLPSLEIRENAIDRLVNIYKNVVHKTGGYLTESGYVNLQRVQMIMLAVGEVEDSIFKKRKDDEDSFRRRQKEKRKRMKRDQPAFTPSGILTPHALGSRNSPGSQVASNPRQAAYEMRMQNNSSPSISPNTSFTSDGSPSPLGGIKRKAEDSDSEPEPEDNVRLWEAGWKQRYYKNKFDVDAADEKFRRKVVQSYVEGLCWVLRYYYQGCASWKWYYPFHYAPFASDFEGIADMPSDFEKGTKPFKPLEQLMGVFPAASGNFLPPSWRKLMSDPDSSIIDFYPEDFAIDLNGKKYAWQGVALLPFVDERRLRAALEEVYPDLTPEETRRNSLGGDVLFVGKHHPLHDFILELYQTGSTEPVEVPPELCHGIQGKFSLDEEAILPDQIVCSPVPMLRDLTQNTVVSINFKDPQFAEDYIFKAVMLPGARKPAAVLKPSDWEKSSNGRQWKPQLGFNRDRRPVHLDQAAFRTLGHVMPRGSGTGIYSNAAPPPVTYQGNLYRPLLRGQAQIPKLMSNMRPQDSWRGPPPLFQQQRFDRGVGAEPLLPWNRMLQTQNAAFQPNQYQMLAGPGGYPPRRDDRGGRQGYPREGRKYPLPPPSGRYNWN
As to the method: as §1

One may read the EC50 as the concentration that produces a half-maximal response. Read a low EC50 as higher potency in that assay. For AAUAAA, the concentration giving a half-maximal response (EC50) with CELF2 came out at 1.25 µM; with DHX9 it was 4.05 µM; with NKRF, 1.18 µM; in the series with XRN2 it was 0.843 µM.

For CUGUCCU, the concentration giving a half-maximal response (EC50) with CELF2 worked out at 2.67 µM; with DHX9 it was 0.546 µM; with NKRF, 0.554 µM; with XRN2, 0.147 µM.

With UAUUUAU, the EC50 came out at 0.517 µM in the series with CELF2, 1.87 µM with DHX9, 0.38 µM with NKRF and 0.409 µM with XRN2.
